Laboratory results taken from the supplement of paper PMC9732359.
± gives the uncertainty stated by the source.

Experiment: protein stability index of a GFP-peptide fusion (yeast GPS) (PSI 1-4); higher = more stable; sorted into four equal gates, so the index is relative within each strain
Summary of the method: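 Tiled 17-residue peptides from yeast proteins were fused downstream of GFP on a plasmid that also expresses Cherry, and the pooled library was carried in yeast. Mid-log cultures grown in leucine-free medium were sorted into four equal gates by GFP/Cherry fluorescence ratio. Plasmids from each gate were PCR-amplified and Illumina-sequenced, and reads were assigned to strains by barcodes. Each peptide's protein stability index is the sum, over gates, of the gate's read frequency multiplied by its gate number.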

Sequence	protein stability index (doa10∆)	protein stability index (pdr5∆)	protein stability index (san1∆)	protein stability index (ubr1∆)
GNGNVSESDIINNLPPE [YCG1]	2.85 ± 0.24	2.85 ± 0.13	2.95 ± 0.27	2.78 ± 0.15
GNIQISEYNFLEGSVSL [DIS3]	2.74 ± 0.097	3.08 ± 0.091	3.05 ± 0.09	2.89 ± 0.072
GNKKYRALRIETGNFSW [RPS8A]	2.87 ± 0.038	3.15 ± 0.044	3.14 ± 0.036	2.85 ± 0.03
GNMGITTEMLDKLMVTS [MED6]	3.36 ± 0.1	3.55 ± 0.1	3.26 ± 0.068	3.07 ± 0.11
GNPLSIGTLEEIIDDDH [RPT2]	3.28 ± 0.1	3.43 ± 0.14	3.14 ± 0.076	3.24 ± 0.17
GNVFSPIDNNIIFASTK [SNU114]	3.16 ± 0.062	2.97 ± 0.092	2.97 ± 0.052	2.95 ± 0.046
GNVLLNATVVDSFKYEP [YLR335W/NUP2]	2.92 ± 0.074	3.02 ± 0.1	3.05 ± 0.081	2.62 ± 0.17
GNVTELYGTAIGARSQG [PRE5]	2.11 ± 0.08	2.09 ± 0.15	1.94 ± 0.071	1.31 ± 0.044
GPGGQAALRALARSGLR [RPS14B]	2.41 ± 0.081	2.59 ± 0.11	2.22 ± 0.11	2.48 ± 0.085
GPKKNVFYAPNVKNYST [RPC34]	2.69 ± 0.072	2.56 ± 0.059	2.91 ± 0.056	2.49 ± 0.044
GPRNTEEKGWVPVTKLG [RPS2]	3.55 ± 0.1	3.46 ± 0.1	3.61 ± 0.05	3.67 ± 0.082
GPVAAQFTKVIDEPIKS [FAS1]	1.8 ± 0.2	2.41 ± 0.092	2.15 ± 0.14	2 ± 0.052
GPVVAGINSKSGKPFIA [PUP3]	3.18 ± 0.13	3.27 ± 0.11	2.99 ± 0.18	3.05 ± 0.11
GQCRTELEGSFNKSAEL [YCS4]	3.04 ± 0.09	2.51 ± 0.095	2.6 ± 0.1	2.9 ± 0.081
GQLLSVKFLVYQGVYSM [YML031W/NDC1]	1.61 ± 0.084	1.75 ± 0.14	1.48 ± 0.11	1.98 ± 0.11
GQNCLDIDGIMDNPRKL [SNU114]	–	3.43 ± 0.27	3.4 ± 0.092	3.81 ± 0.27
GQRDLDRIAAQTLEEDE [RPS19A]	3.21 ± 0.087	3.21 ± 0.091	3.29 ± 0.1	3.23 ± 0.097
GQSEASLLNLLNISPFT [RPP0]	2.59 ± 0.066	2.1 ± 0.057	2.29 ± 0.085	2.66 ± 0.058
GRAGVPMEVMGLMLGEF [RPN11]	1.25 ± 0.17	2.12 ± 0.26	1.69 ± 0.18	–
GRLLRAMFEICLKRGWG [BRR2]	1.75 ± 0.11	1.59 ± 0.091	1.76 ± 0.12	1.81 ± 0.077
GRLNTLVISLAATNETF [IRR1]	1.64 ± 0.088	1.38 ± 0.065	1.1 ± 0.23	1.17 ± 0.06
GRLSLRSLTAYAPNLML [QCR10]	1.26 ± 0.041	1.9 ± 0.051	1.63 ± 0.081	1.42 ± 0.06
GRRLNIRQYALATAHIY [SSN8]	1.53 ± 0.055	1.32 ± 0.057	1.17 ± 0.17	1.09 ± 0.067
GRSDSNTEEKAELQSNL [YGL100W/SEH1]	1.61 ± 0.037	1.64 ± 0.051	1.4 ± 0.14	1.52 ± 0.039
GRSRDGGLRFGEMERDC [RPB2]	2.86 ± 0.29	–	2.83 ± 0.17	–

Sequence	protein stability index (doa10∆)	protein stability index (pdr5∆)	protein stability index (san1∆)	protein stability index (ubr1∆)
GRVKYTKRQKHFAWLPT [POP1]	2.27 ± 0.051	2.48 ± 0.081	2.3 ± 0.084	2.55 ± 0.039
GRYAGKKVVIVKPHDEG [RPL27A]	3.25 ± 0.25	2.72 ± 0.21	–	2.29 ± 0.26
GSEILGDLKLQVLLDEE [RPO21]	3.25 ± 0.12	3.35 ± 0.13	3.04 ± 0.14	3.28 ± 0.1
GSFKVVKGTNISEKDLV [RPO31]	2.6 ± 0.27	3.36 ± 0.14	3.51 ± 0.044	3.5 ± 0.089
GSIPSLTTQFVTDKYTA [YDL088C/ASM4]	2.54 ± 0.08	2.54 ± 0.066	2.46 ± 0.087	2.58 ± 0.079
GSKENYQELGSLQSSSQ [MED2]	3.16 ± 0.15	3.45 ± 0.098	3.27 ± 0.071	3.12 ± 0.093
GSKIRVMWGKVTRTHGN [RPL33A]	3.09 ± 0.075	2.9 ± 0.076	2.76 ± 0.062	2.78 ± 0.054
GSNNAQTSRGLFGNNNT [YGL172W/NUP49]	3.24 ± 0.087	3.25 ± 0.074	3.14 ± 0.046	3.16 ± 0.1
GSQKTFEIDDEHRIRVF [RPS6A]	1.75 ± 0.089	2.76 ± 0.14	1.97 ± 0.16	2.5 ± 0.21
GSTFKVNQEFIFEAISL [YJL039C/NUP192]	2.33 ± 0.1	2.31 ± 0.12	1.43 ± 0.15	1.49 ± 0.079
GTANNNSNTTNQNSSTG [YJL041W/NSP1]	3.19 ± 0.064	3.37 ± 0.075	3.25 ± 0.042	3.09 ± 0.061
GTCNGDITTSIMDNFLE [RPN1]	2.77 ± 0.054	2.85 ± 0.057	2.86 ± 0.056	2.82 ± 0.068
GTFTADYSKPNLPPHYA [SSN2]	2.23 ± 0.055	2.28 ± 0.049	2.16 ± 0.068	2.15 ± 0.039
GTGLFGQQTAQPQQSTI [YGR119C/NUP57]	2.76 ± 0.063	3.13 ± 0.046	2.85 ± 0.051	3.19 ± 0.058
GTLDKNSQTVSGTPITQ [SNF2]	2.83 ± 0.055	2.71 ± 0.055	2.69 ± 0.052	2.65 ± 0.044
GTLWAHVLKTVDYGGAE [SNU114]	1.44 ± 0.084	1.32 ± 0.057	1.65 ± 0.16	1.36 ± 0.057
GTQQSNMYTSTQKTELE [SIR4]	2.96 ± 0.049	3.12 ± 0.047	2.95 ± 0.048	3 ± 0.053
GTYIQERNPSQRPQRRY [RPS10B]	3.01 ± 0.052	3.1 ± 0.042	3.09 ± 0.033	3.23 ± 0.036
GVANTDTAGEESQQQDE [SWI3]	3.45 ± 0.1	3.55 ± 0.085	3.33 ± 0.062	3.43 ± 0.086
GVDDQILATNSLRILAK [YJL039C/NUP192]	3.14 ± 0.13	3.08 ± 0.08	3.12 ± 0.069	3.24 ± 0.076
GVKNNLLTPKSGEPIIA [RPO31]	–	–	–	2.62 ± 0.22
GWSLVGRILQNLLHSYM [YML103C/NUP188]	1.85 ± 0.087	1.18 ± 0.06	1.18 ± 0.092	1.05 ± 0.03
GYDRHITIFSPEGRLYQ [SCL1]	2.76 ± 0.11	2.84 ± 0.082	2.96 ± 0.057	3.06 ± 0.077
GYFIINGSEKVLIAQER [RPB2]	3.14 ± 0.21	2.94 ± 0.17	3.16 ± 0.18	2.15 ± 0.26
GYIKNNKKIYQWNKLTS [POP6]	2.93 ± 0.085	2.91 ± 0.089	2.89 ± 0.072	3.06 ± 0.081
